Experiment: ion mobility collision cross-section
Format: physicochemical
Conditions: native IM-MS, N2, calibrated with β-lactoglobulin and avidin
Text: To isolate a stable HspB1-FLNCd18–21 complex and localize the binding within HspB1, we performed native ion mobility MS (IM-MS) experiments. […] Next, we mixed FLNCd18–21 with either HspB1_84–171 or peptides mimicking the PPR, because this region is phosphorylated in the MLP KO mice (Fig. 1C) and generally upon biomechanical stress ([26]) and becomes exposed thereafter. This strategy of using segments of HspB1 meant that we could avoid the problems of insolubilization of the full-length protein upon interaction with FLNC d18–21, as well as generally mitigate the confounding effects associated with the chaperone’s intrinsic polydispersity.
Because HspB1 can form disulfide-linked dimers, experiments involving the ACD were performed in the presence of 10-fold molar excess DTT. Gold-plated capillaries were prepared in-house. Native MS and IM-MS data were recorded on a Synapt G1 mass spectrometer (Waters) modified for the transmission of intact noncovalent protein complexes. HspB1_77–171 variants were analyzed at a concentration of 10 μM in 200 mM ammonium acetate (pH 6.9). […]
CCSs (Ω) of models from the PDB (trimmed in PyMOL as described in the Supplementary Materials) were calculated by the projection approximation method using IMPACT ([60]), accounting for N2 as the collision gas. […]

B1: FLNCd18–21: Human FLNC domains 18-21 (protein)
chain: TAKITGDDSMRTSQLNVGTSTDVSLKITESDLSQLTASIRAPSGNEEPCLLKRLPNRHIGISFTPKEVGEHVVSVRKSGKHVTNSPFKILVGPSEIGDASKVRVWGKGLSEGHTFQVAEFIVDTRNAGYGGLGLSIEGPSKVDINCEDMEDGTCKVTYCPTEPGTYIINIKFADKHVPGSPFTVKVTGEGRMKESITRRRQAPSIATIGSTCDLNLKIPGNWFQMVSAQERLTRTFTRSSHTYTRTERTEISKTRGGETKREVRVEESTQVGGDPFPAVFGDFLGRERLGSFGSITRQQEGEASSQDMTAQVTSPSGKVEAAEIVEGEDSAYSVRFVPQEMGPHTVAVKYRGQHVPGSPFQFTVGPLGEGGAHKVRAGGTGLERGVAGVPAEFSIWTREAGAGGLSIAVEGPSKAEIAFEDRKDGSCGVSYVVQEPGDYEVSIKFNDEHIPDSPFVVPVASLSDDA
modifications: left off: His6, C-terminal, state not stated | EEF, C-terminal, kept
  collision cross section (CCS): 37.2 ± 0.8 nm^2
